Patent publication US6020166, “Nucleic acid encoding an altered telomere repeat binding factor 2” (The Rockfeller University)

T1: TRF1 purified from HeLa (Homo sapiens, UniProt P54274 SEQ:1-439)
T1 chain: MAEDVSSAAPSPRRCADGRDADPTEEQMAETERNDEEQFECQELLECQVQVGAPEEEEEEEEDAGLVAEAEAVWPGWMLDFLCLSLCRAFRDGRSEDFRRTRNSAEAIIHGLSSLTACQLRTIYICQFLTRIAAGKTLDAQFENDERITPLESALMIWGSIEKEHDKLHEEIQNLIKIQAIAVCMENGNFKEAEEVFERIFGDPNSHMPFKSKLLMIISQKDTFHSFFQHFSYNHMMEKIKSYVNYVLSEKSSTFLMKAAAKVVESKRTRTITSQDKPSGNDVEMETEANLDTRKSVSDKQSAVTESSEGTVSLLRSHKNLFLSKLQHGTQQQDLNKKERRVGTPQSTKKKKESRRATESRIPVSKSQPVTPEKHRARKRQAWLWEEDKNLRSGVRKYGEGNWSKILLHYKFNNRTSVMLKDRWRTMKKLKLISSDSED

T2: TRF1 full length (Homo sapiens, UniProt P54274 SEQ:1-439)
T2 chain: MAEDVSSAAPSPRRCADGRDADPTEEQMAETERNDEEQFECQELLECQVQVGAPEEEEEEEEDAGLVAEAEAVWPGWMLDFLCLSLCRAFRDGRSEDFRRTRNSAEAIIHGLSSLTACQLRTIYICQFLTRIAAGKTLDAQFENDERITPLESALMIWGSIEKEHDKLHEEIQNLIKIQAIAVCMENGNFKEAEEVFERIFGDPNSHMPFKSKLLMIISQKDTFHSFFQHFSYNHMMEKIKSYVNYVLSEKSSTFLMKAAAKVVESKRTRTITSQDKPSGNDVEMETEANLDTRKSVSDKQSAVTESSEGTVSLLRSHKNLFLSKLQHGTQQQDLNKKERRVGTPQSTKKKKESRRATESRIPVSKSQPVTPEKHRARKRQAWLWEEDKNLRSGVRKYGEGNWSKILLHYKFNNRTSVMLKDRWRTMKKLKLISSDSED

T3: TRF1 derivative II (Homo sapiens, UniProt P54274 SEQ:1-439)
T3 chain: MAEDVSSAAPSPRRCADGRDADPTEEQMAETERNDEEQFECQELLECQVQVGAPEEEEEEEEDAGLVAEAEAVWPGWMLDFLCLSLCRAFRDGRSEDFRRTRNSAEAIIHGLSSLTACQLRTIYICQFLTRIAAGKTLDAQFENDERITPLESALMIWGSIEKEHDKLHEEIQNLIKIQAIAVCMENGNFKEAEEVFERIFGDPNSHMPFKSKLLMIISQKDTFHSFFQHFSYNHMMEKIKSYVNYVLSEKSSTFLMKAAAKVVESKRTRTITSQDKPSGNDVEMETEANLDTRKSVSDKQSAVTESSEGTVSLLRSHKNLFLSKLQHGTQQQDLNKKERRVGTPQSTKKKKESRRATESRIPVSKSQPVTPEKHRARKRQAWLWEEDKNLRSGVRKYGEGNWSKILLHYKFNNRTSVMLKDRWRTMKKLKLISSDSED

T4: GFP-TRF1 (Homo sapiens, UniProt P54274 SEQ:1-439)
T4 chain: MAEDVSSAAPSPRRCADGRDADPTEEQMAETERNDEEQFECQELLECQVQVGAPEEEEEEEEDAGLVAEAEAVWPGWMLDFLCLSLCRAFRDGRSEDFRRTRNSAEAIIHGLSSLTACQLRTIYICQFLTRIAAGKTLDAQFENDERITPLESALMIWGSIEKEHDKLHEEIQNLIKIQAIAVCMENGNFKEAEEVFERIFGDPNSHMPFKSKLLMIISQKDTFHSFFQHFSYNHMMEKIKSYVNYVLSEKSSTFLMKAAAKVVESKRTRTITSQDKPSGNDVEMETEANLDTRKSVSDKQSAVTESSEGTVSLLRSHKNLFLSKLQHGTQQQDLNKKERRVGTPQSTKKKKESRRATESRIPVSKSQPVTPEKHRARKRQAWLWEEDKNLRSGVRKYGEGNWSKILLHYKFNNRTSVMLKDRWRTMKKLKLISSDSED

T5: TRF1 delta263-376 (Homo sapiens, internal deletion 263-376)
T5 chain: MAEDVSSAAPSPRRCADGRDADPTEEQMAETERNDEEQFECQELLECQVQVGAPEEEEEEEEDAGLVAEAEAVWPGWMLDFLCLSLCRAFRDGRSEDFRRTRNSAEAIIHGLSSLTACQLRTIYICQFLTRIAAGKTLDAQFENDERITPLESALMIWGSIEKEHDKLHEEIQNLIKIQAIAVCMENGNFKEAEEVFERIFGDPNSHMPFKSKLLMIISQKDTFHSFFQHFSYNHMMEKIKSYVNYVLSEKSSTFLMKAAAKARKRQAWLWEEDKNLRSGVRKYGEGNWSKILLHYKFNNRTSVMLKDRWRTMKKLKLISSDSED


How the values were obtained:
TRF1 purified from HeLa [1] = biological target: T1, TRF1 purified from HeLa; test: EMSA; bend 64-66 degrees; competed by TTAGGG plasmid; details: chain copies: 2 stated; label: 32P
Protocol: (§1) DNA bending assay: PCR primers were used to generate DNA fragments with the composition indicated in FIG. 9 using pTH3, pTH6, and pTH12 [Zhong et al., 1992, supra] as templates, which contain 3, 6, and 12 tandem TTAGGG repeats, respectively. The products were end-labelled with ^32P-γ-ATP and polynucleotide kinase and the labelled fragments were isolated by preparative acrylamide gel-electrophoresis. Gel-shift reactions with partially purified HeLa TRF1 were performed as described above and the migration of the complexes was analyzed as described by Ferrari et al. [Ferrari et al., 1992, supra], and Thompson and Landy [*Nucl. Acids Res.*, 16:9687–9705 (1988)].
(§2) Labeled DNA probes were incubated with purified HeLa TRF1 under conditions in which one TRF1 dimer binds per probe molecule [Zhong et al., 1992, supra] and the mobility of the resulting complexes was analyzed on native polyacrylamide gels. The permuted sets of fragments had the same electrophoretic mobility as expected from their equal lengths. […] As shown in FIG. 9B for the 6mer and 12mer probes, an effect of the position of the hTRF1 binding site within the probes was observed. Slower migrating complexes were obtained when the binding site for hTRF1 was located more centrally in the DNA molecule, consistent with the induction of DNA bending upon hTRF1 binding.

TRF1 full length = biological target: T2, TRF1 full length; test: EMSA; details: label: 32P
Excerpt: (§3) Coupled in vitro transcription/translation: TRF1 deletion mutants used for the in vitro coupled transcription/translation experiments were cloned in the vector pET28(a) (Promega) in the NcoI and EcoRI sites using PCR-generated fragments. The GFP-TRF1 fusion product was cloned in pBluescriptKS+. PCR-directed mutagenesis was used to eliminate from this construct the start codon of the TRF1 gene by mutating it from ATG to ATT in order to suppress the occurrence of internal translation at this position. The GFP sequence was obtained from pS65T-C I (Clontech). Expression of TRF1 derivatives was achieved by using a rabbit reticulocyte lysate system (Promega) using reaction conditions essentially as described by the supplier. Briefly, between 0.2 to 1 µg of total plasmid DNA was used per 20 µl reaction containing T7 RNA polymerase in the presence of ^35S-methionine (to visualize products on SDS-PAGE) or without labeled amino acids (for gel-shift assays). After the transcription/translation reaction samples were diluted 1:5 with the addition of 80 µl of buffer D [Chong et al., 1995, supra]. Of this mixture, 0.5–5 µl was used in gel-shift reactions.
(§4) Gel-shift assays: Gel-shift assays were performed as described previously [Zhong et al., 1992, supra] using labeled restriction fragments as probes. […]

TRF1 purified from HeLa [2] = biological target: T1, TRF1 purified from HeLa; test: EMSA; bend 57 and 59 degrees; competed by TTAGGG plasmid; details: chain copies: 2 stated; label: 32P
Protocol: as §1, §2

TRF1 derivative II = biological target: T3, TRF1 derivative II; test: EMSA; binds as homodimer; details: tags: N-terminal 43 aa polylinker-encoded addition; chain copies: 2 stated; label: 32P
Excerpt: as §3, §4

GFP-TRF1 = biological target: T4, GFP-TRF1; test: EMSA; binds as homodimer; details: tags: N-terminal GFP; TRF1 start codon ATG to ATT; chain copies: 2 stated; label: 32P
Excerpt: as §3, §4

TRF1 deltaN-196 = TRF1 deltaN-196 (Homo sapiens, UniProt P54274 SEQ:1-439, deletion of N-terminus to 196); test: EMSA; lacks dimerization domain; details: label: 32P
Excerpt: as §3, §4

TRF1 delta263-376 = biological target: T5, TRF1 delta263-376; test: EMSA; dimerization domain fused to Myb; details: label: 32P
Excerpt: as §3, §4

TRF1 deltaN-376 = TRF1 deltaN-376 (Homo sapiens, UniProt P54274 SEQ:1-439, deletion of N-terminus to 376); test: EMSA; Myb domain without dimerization domain; details: label: 32P
Excerpt: as §3, §4

TRF1 deltaN-28 = TRF1 deltaN-28 (Homo sapiens, UniProt P54274 SEQ:1-439, deletion of first 28 aa); test: EMSA; activity unaffected; details: label: 32P
Excerpt: as §3, §4

TRF1 deltaN-46 = TRF1 deltaN-46 (Homo sapiens, UniProt P54274 SEQ:1-439, deletion of first 46 aa); test: EMSA; activity unaffected; details: label: 32P
Excerpt: as §3, §4

Binder	binding result (TRF1 purified from HeLa [1])	binding result (TRF1 full length)	binding result (TRF1 purified from HeLa [2])	binding result (TRF1 derivative II)	binding result (GFP-TRF1)	binding result (TRF1 deltaN-196)	binding result (TRF1 delta263-376)	binding result (TRF1 deltaN-376)	binding result (TRF1 deltaN-28)	binding result (TRF1 deltaN-46)
[TTAGGG]6 permuted probes (dsDNA) DNA 1: TTAGGGTTAGGGTTAGGGTTAGGGTTAGGGTTAGGG DNA 2: CCCTAACCCTAACCCTAACCCTAACCCTAACCCTAA	binds	–	–	–	–	–	–	–	–	–
[TTAGGG]12 probe (142 bp pTH12 fragment) (dsDNA) DNA 1: TTAGGGTTAGGGTTAGGGTTAGGGTTAGGGTTAGGGTTAGGGTTAGGGTTAGGGTTAGGGTTAGGGTTAGGG DNA 2: CCCTAACCCTAACCCTAACCCTAACCCTAACCCTAACCCTAACCCTAACCCTAACCCTAACCCTAACCCTAA	–	binds	binds	binds	binds	no binding	no binding	no binding	binds	binds
